Measurements as given in patent US20190022241A1 (AbbVie / Abbott, published 2019).

Legend:
[1] = target: T1, SEZ6 Sushi Domain 5 (amino acids 817-878) on yeast (human, UniProt Q53EL9 836-897); experiment: yeast display, flow cytometry;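 also: antibody binding to individual SEZ6 domains displayed on yeast, measured by flow cytometry, antibody at 50 nM purified or hybridoma supernatant diluted 1:2, 90 min on ice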
T1 construct: yeast display

[2] = target: T2, SEZ6 Sushi Domain 3 (amino acids 690-748) on yeast (human, UniProt Q53EL9 709-767); experiment: yeast display, flow cytometry;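 also: antibody binding to individual SEZ6 domains displayed on yeast, measured by flow cytometry, antibody at 50 nM purified or hybridoma supernatant diluted 1:2, 90 min on ice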
T2 construct: yeast display

[3] = target: T3, SEZ6 Sushi Domain 4 (amino acids 750-813) on yeast (human, UniProt Q53EL9 769-832); experiment: yeast display, flow cytometry;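 also: antibody binding to individual SEZ6 domains displayed on yeast, measured by flow cytometry, antibody at 50 nM purified or hybridoma supernatant diluted 1:2, 90 min on ice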
T3 construct: yeast display

[4] = target: T4, human SEZ6 on HEK-293T cells (human, UniProt Q53EL9 20-994); experiment: immunohistochemistry
T4 construct: also called h293T-HuSEZ6

hSEZ6-ECD-His = target: T5, hSEZ6-ECD-His (human, UniProt Q53EL9 20-925); experiment: immunohistochemistry, signal competed by soluble antigen
T5 construct: the whole entry is named; also called recombinant SEZ6-His; human recombinant SEZ6-His

[5] = target: T6, SEZ6 Sushi Domain 2 (amino acids 511-572) on yeast (human, UniProt Q53EL9 530-591); experiment: yeast display, flow cytometry;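 also: antibody binding to individual SEZ6 domains displayed on yeast, measured by flow cytometry, antibody at 50 nM purified or hybridoma supernatant diluted 1:2, 90 min on ice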
T6 construct: yeast display
T6 sequence: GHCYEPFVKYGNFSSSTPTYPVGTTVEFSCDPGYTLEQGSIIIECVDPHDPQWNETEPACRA

B1: SC17.74 (antibody, V domains shown)
VH: QVQLKQSGPGLVAPSQSLSITCTVSGFSLTSYGVDWVRQSPGKGLEWLGVIWGGGSTNYNSALKSRLSITKDNSKSQVFLKMNSLQTDDTAMYYCASGDYDGSLWFAYWGQGTLVTVSA
VL: DIQMTQSSSYLSVSLGGRVTITCKASDHINNWLAWYQQKPGNAPRLLISGATSLETGVPSRFSGSGSGKDYTLSITSLQTEDVATYYCQQYWSTPPTFGAGTKLELK
notes: murine mAb
binding result [1]: binds

B2: SC17.95 (antibody, V domains shown)
VH: EVELQQSGPELVKPGASVKISCKTSGNTYTEYTMQWVKLSHGKSLEWIGGINPNNGITSYNQKFKGKATLTVDKSSSTAYMELRSLKSEDSAVYYCARAGLGNYVWAMDYWGQGASVTVSS
VL: DIQMTQTTSSLSASLGDRVTISCSASQGINNYLNWYQQKPDGTVTLLIYYTSSLHSGVPSRFSGSGSGTDYSLTISNLEPEDIATYYCQQYSKLPWTFGGGTKLEIK
notes: murine mAb
binding result [2]: binds

B3: SC17.140 (antibody, V domains shown)
VH: EVQLQQSGPELMKPGASVKMSCKASGYTFTDYNMHWVKQNQGKSLEWIGEINPNTGGTGYNQKFKGKATLTVDKFSSTAFIELRSLTSEDSAIYYCTRGGYDHYWYFDVWGAGTTVTVSS
VL: QIVLTQSPAIMSASPGEKVTMTCSASSSVSYMHWYQQKSGTSPKRWIYDTSKLASGVPARFSGSGSGTSYSLTISSMEAEDAATYYCQQWSSTPPTFGSGTKLEIK
notes: murine mAb
binding result [3]: binds
binding result [4]: binds
binding result (hSEZ6-ECD-His): binds

B4: SC17.90 (antibody, V domains shown)
VL: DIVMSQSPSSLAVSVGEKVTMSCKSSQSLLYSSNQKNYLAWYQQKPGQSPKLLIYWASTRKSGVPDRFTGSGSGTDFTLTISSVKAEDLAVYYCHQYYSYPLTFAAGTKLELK
VH: QVQLQQPGSVLVRPGASVKLSCKASGYTFTSYWMHWVKQRPGQGLEWIGEIHPNNGSTNYNEKFKGKATLTVDTSSSTAYVDLSSLTSEDSAVYYCARWTLFTYWGQGTLVTVSA
notes: murine mAb; also called SC17.155 (duplicate)
binding result [5]: binds
